Tests used:
[1] = Bolus ID vs SC insulin in diabetic Yucatan Mini swine, serum insulin levels; format: in vivo; details: for PK profiles for regular and fast-acting insulin by the ID route / uptake by ID route compared with Lispro given by the traditional SC route: SS3_34
Procedure: Lilly Lispro is regarded as fast acting insulin, and has a slightly altered protein structure relative to native human insulin. Hoechst regular insulin, maintains the native human insulin protein structure that is chemically similar, but has slower uptake than Lispro when administered by the traditional SC route. Both insulin types were administered in bolus via the ID route to determine if any differences in uptake would be discernable by this route. 5 U of either insulin type were administered to the ID space using dermal access microdevice design SS3—34.
Thus, 5 U of Lilly Lispro fast-acting insulin was administered using dermal access design SS3—34. Additional microdevices of the same needle array configuration were fabricated whereby exposed needle lengths of the microdevice array, were lengthened to include arrays with needles lengths of 2 and 3 mm. The average total dermal thickness in Yucatan Mini swine ranges from 1.5-2.5 mm. Therefore insulin deposition is expected to be into the dermis, approximately at the dermal/SC interface, and below the dermis and within the SC for 1 mm, 2 mm, and 3 mm length needles respectively. Bolus insulin administration was as described in Example 6.2.
Bolus delivery of Lantus long-acting insulin was delivered via the ID route. Lantus is an insulin solution that forms microprecipitates at the administration site upon injection. […] Lantus insulin (10 U dose, 100 μL) was administered to diabetic Yucatan Mini pigs using the dermal access design SS3—34 and by the standard SC method as previously described. […] More importantly this supports the fact that the biological clearance mechanism in the body is not appreciably changed by the administration route, nor is the way in which that the drug substance is utilized. This is extremely important for drugs compounds that have a long circulating half-life (examples would be large soluble receptor compounds or other antibodies for cancer treatment, or chemically modified species such as PEGylated drugs).

[2] = Slow-infusion ID vs SC insulin delivery in swine, serum insulin pharmacokinetics; format: in vivo
Procedure: Pharmacokinetic parameters of the delivered substances in accordance with the methods of the invention may be determined using methods known to one skilled in the art. An exemplary pharmacokinetic analysis of infusion data of a substance, e.g., insulin, delivered in accordance with the methods of the invention is carried out as follows. Stepwise nonlinear least-squares regression is used to analyze the insulin concentration-time data from each individual animal. Initially, an empirical biexponential equation is fit to the insulin concentration-time data for the negative control condition. This analysis assumes first-order release of residual insulin, and recovers parameters for the first-order rate constant for release, the residual insulin concentration at the release site, a lag time for release, and a first-order rate constant for elimination of insulin from the systemic circulation. The parameters recovered in this phase of the analysis are of no intrinsic importance, but merely account for the fraction of circulating insulin derived from endogenous sources.
The second step of the analysis involves fitting an explicit compartmental model to the insulin concentration-time data during and after subcutaneous or intradermal infusion. The scheme upon which the mathematical model is based is shown in the upper part of FIG. 1. Infusion of insulin proceeds from t=−0 to t=240-min; after a lag-time (tlag,2) absorption from the infusion site is mediated by a first-order process governed by the absorption rate constant ka. Insulin absorbes into the systemic circulation, distributes into an apparent volume V contaminated by an unknown fractional bioavailability F, and is eliminated according to a first-order rate constant K. The fitting routine recovered estimates of tlag,2, ka, V/F, and K; parameters associated with the disposition of endogenous insulin (CR, tlag,1, kR), which are recovered in the first step of the analysis, are treated as constants. Parameter estimates are reported as mean±SD. The significance of differences in specific parameters between the two different modes of insulin administration (subcutaneous versus intradermal infusion) are assessed with the paired Student's t-test.

blood glucose [3] = assay: Slow-infusion ID insulin delivery in swine, blood glucose response; details: ID infusion 2 U/hr, relative to negative controls and SC infusion
Description: The distal end of the microneedle was placed into the plastic catheter and cemented in place with epoxy resin to form a depth-limiting hub. The needle outlet was positioned approximately 1 mm beyond the epoxy hub, thus limiting penetration of the needle outlet into the skin to approximately 1 mm, which corresponds to the depth of the intradermal space in swine. The catheter was attached to a MiniMed 507 insulin pump for control of fluid delivery. The distal end of the microneedle was placed into the plastic catheter and cemented in place with epoxy resin to form a death-limiting hub. The needle outlet was positioned approximately 1 mm beyond the epoxy hub, thus limiting penetration of the needle outlet into the skin to approximately 1 mm, which corresponds to the depth of the intradermal space in swine. […] The catheter was connected to an-external insulin infusion pump (MiniMed 507) via the integral Luer connection at the catheter outlet. The pump was filled with Humalog™ (Lispro) insulin (Eli Lilly, Indianapolis, Ind.) and the catheter and microneedle were primed with insulin according to the manufacturer's instructions. […] Blood samples were periodically withdrawn and analyzed for serum insulin concentration and blood glucose values.

blood glucose [4] = assay: Bolus ID vs SC insulin in diabetic Yucatan Mini swine, blood glucose; details: bolus 10 U, 100 μL
Procedure: Bolus delivery of Lilly Lispro fast acting insulin was performed using ID and SC bolus administration. The ID injection microdevice was dermal access array design SS3—34.10 international insulin units (U) corresponding to 100 μL volume respectively, were administered to diabetic Yucatan Minis swine. Test animals had been previously been rendered diabetic by chemical ablation of pancreatic islet cells, and were no longer able to secrete insulin. Test animals received their insulin injection either via the microneedle array or via a standard 30 G×½ in. needle inserted laterally into the SC tissue space. Circulating serum insulin levels were detected using a commercial chemiluminescent assay kit (Immulite, Los Angeles, Calif.) and blood glucose values were determined using blood glucose strips. ID injections were accomplished via hand pressure using an analytical microsyringe and were administered over approximately 60 sec.

[5] = ID vs SC infusion of PTH, weight normalized PTH plasma levels; format: in vivo
Procedure: An ID administration experiment was conducted using a peptide drug entity: human parathyroid hormone 1-34 (PTH). […] Control SC infusion was through a standard 31-gauge needle inserted into the SC space lateral to the skin using a “pinch-up” technique. ID infusion was through dermal access microdevice design SSB1—30 (a stainless steel 30-gauge needle bent at the tip at a 90° angle such that the available length for skin penetration was 1-2 mm). The needle outlet (the tip of the needle) was at a depth of 1.7-2.0 mm in the skin when the needle was inserted. A 0.64 mg/mL PTH solution was infused at a rate of 75 μL/hr. Flow rate was controlled via a Harvard syringe pump.

[6] = Bolus ID delivery of GCSF to Yucatan minipigs, plasma GCSF by ELISA; format: in vivo; details: bolus ID relative to SC
Procedure: (§1) Bolus ID delivery of human granulocyte colony stimulating factor (GCSF) (Neupogen) was administered via dermal access microdevice designs SS3—34B (array) or SS1—34 (single needle) to Yucatan minipigs. Delivery rate was controlled via a Harvard syringe pump and was administered over a 1-2.5 min period. […] Administration via IV and SC delivery was performed as controls.

[7] = test system: white blood cell (WBC) counts; assay: White blood cell expansion after GCSF administration; format: in vivo, Yucatan minipigs; details: ID, SC and IV delivery vs negative control
Procedure: as §1

[8] = bolus 10 U, 100 μL, SS3_34 array vs SC needle
[9] = 4 hour infusion, 0.64 mg/mL at 75 μL/hr

Hoechst regular insulin: regular insulin that maintains the native human insulin protein structure
PK profiles for regular and fast-acting insulin by the ID route ([1]; bolus 5 U): essentially identical
uptake by ID route compared with Lispro given by the traditional SC route ([1]; bolus 5 U): faster uptake

Lantus
"burst" immediately after the ID insulin delivery, relative to SC ([1]; bolus 10 U dose, 100 μL): slightly higher

Lispro
lag time prior to absorption (tlag) ([2]; ID infusion, 2 U/hr for 4 hr): 0.88 min
rate of uptake from the administration site, ka ([2]; ID infusion, 2 U/hr for 4 hr): 0.0666 min⁻¹
bioavailability, ID relative to SC administration ([2]; ID relative to SC infusion): approximately 1.3 fold
increase of rate of uptake from the administration site, ID vs SC ([2]; ID relative to SC infusion): approximately 3 fold
lag time prior to absorption (tlag) ([2]; SC infusion): 13.6 min
rate of uptake from the administration site, ka ([2]; SC infusion): 0.0225 min⁻¹
PK profiles for regular and fast-acting insulin by the ID route ([1]; bolus 5 U): essentially identical
uptake by ID route compared with Lispro given by the traditional SC route ([1]; bolus 5 U): faster uptake
PK profile as microneedle length is increased ([1]; bolus 5 U, needle lengths 1, 2 and 3 mm): more closely resemble SC administration
maximum concentration obtained (Cmax), ID vs SC [1, 8]: higher
time to maximum concentration (Tmax), ID vs SC [1, 8]: shorter
blood glucose drop (blood glucose [3]): improved relative to conventional SC infusion
decrease in blood glucose (BG), ID vs SC (blood glucose [4]): faster and greater changes in BG

PTH: peptide drug entity: human parathyroid hormone 1-34
plasma level following termination of infusion, ID ([5]; 2 hour clearance after 4 hour infusion): rapid decrease
area under the curve (AUC) of weight normalized plasma level, ID vs SC [5, 9]: larger area under the curve
peak values at earlier sampling timepoints (15 and 30 min), ID vs SC [5, 9]: higher peak values

B1: GCSF: human granulocyte colony stimulating factor (GCSF) (Neupogen) (protein, chains of the INN, looked up)
chain: MTPLGPASSLPQSFLLKCLEQVRKIQGDGAALQEKLCATYKLCHPEELVLLGHSLGIPWAPLSSCPSQALQLAGCLSQLHSGLFLYQGLLQALEGISPELGPTLDTLQLDVADFATTIWQQMEELGMAPALQPTQGAMPAFASAFQRRAGGVLVASHLQSFLEVSYRVLRHLAQP
bioavailability increase (AUC), ID vs SC [6]: approximately 2 fold
white blood cell expansion (PD outcome) [7]: approximately equal PD outcomes

Reference: patent US20050196380A1, “Method for delivering therapeutic proteins to the intradermal compartment” (priority 2004, published 2005)
